Publication PMC9622777, “Eradication of tumors and development of anti-cancer immunity using STINGa targeted by pHLIP” (Frontiers in Oncology, 2022)
Where a SMILES comes first, the peptide text is derived from it. [ ]: non-standard residue; d: D form. The star is where a group is joined. X1 = CCn1nc(C)cc1C(=O)Nc1nc2cc(C(N)=O)cc(OC)c2n1C/C=C/Cn1c(NC(=O)c2cc(C)nn2CC)nc2cc(C(N)=O)cc(OCCC[N+]3(Cc4ccc(NC(=O)OCCS*)cc4)CCOCC3)c21

Experiments:
[1] = test system: tumor stroma and immune cells within CT26 tumors; test: FACS analysis of uptake by tumor stroma and immune cells within CT26 tumors; settings: mouse, in vivo, ip
Protocol: Animal studies on mice were conducted at the Charles River Discovery Service in compliance with the principles and procedures outlined by the National Institutes of Health for the care and use of animals. Uptake of Al647-pHLIP(Laa)-STINGa by tumor cells within CT26 tumors was analyzed by fluorescence activated cell sorting (FACS) analysis. […] When tumors reached 150-250 mm^3 in volume mice were separated into two groups. Eight mice from the treated group #1 received a single IP injection of Al647-pHLIP(Laa)-STINGa (300 µM 100 µl), and five mice from the control group #2 received single IP injection of vehicle (1% DMSO in PBS). 24 hours later all animals were euthanized, and tumors were collected for processing. Tumor stroma and immune cells were identified using the following markers:
• CD4 T cells: CD45^+, CD3^+, CD11b^-, CD4^+, CD8^- • CD8 T cells: CD45^+, CD3^+, CD11b^-, CD4^-, CD8^+ • Treg: CD45^+, CD3^+, CD11b^-, CD4^+, CD25^+, FoxP3^+ • mMDSC: CD45^+, CD3^-, CD11b^+, F4/80^-, Ly6C^high, Ly6G^- • gMDSC: CD45^+, CD3^-, CD11b^+, F4/80^-, Ly6C^low, Ly6G^+ • M1: CD45^+, CD11b^+, F4/80^+, CD206^- • M2: CD45^+, CD11b^+, F4/80^+, CD206^+ • DC: CD45^+, CD11b^+, CD11c^+, MHCII^+, F4/80^- • CAF: CD3^-, CD45^-, CD140b^+
The staining was performed for tumor samples, Fluorescence Minus One (FMO) controls and Single Color Controls (SCC) as indicated below:
The following anti-mouse antibodies were used: CD45-APC-Fire750 clone 30-F11, CD8a-BV650 clone 53-6.7, CD25-BV605 clone PC61, F4/80-PE-Dazzle-594 clone BM8, Ly-6C-FITC clone HK1.4, Ly-6G-BV785 clone 1A8, CD206-BV421 clone C068C2, CD140b-PE clone APB5, CD11c-BV711 clone N418, I-A/I-E-PE/Cy7 clone M5/114.15.2 from BioLegend; CD3e-BUV496 clone 145-2C11, CD4-BUV395 clone GK1.5; CD11b-BUV737 clone M1/70 from BD Biosciences, FoxP3 PerCP-Cy5.5 clone FJK-16s from Thermo Fisher and Live/Dead Aqua-V500 from Life Technologies. The procedure for tumor processing was the following: tumor samples were dissociated according to the manufacturer’s instructions using the gentleMACS™ protocol “Tumor Dissociation Kit”. Samples were filtered through a 70 µm cell strainer and rinsed twice in PBS/2.5% FBS buffer and total sample volumes were measured. Single cell suspensions were prepared in PBS pH 7.4 at 1x10^7 cells/mL and placed into individual wells of a 96-well plate and kept on ice. All incubation steps were carried out protected from light. The washing was performed by spinning the plate at 300x g (or 400x g) for 3 minutes and discarding the supernatant. Live/Dead reagent was added to each sample and incubated at 4°C for 15 minutes followed by washing. […]

CT26 tumor = settings: mouse, in vivo
Protocol: (§1) For pharmacokinetics (PK), biodistribution, pH imaging studies and immunohistochemistry, 5x10^4 of CT26 cancer cells were injected SQ in 100 µl of growth medium into the right flank of female Balb/c mice and tumors were grown until they reached 150-200 mm^3 in volume. […] Animals were euthanized at 2, 4, 24, 48, 72 and 96 hours post-injection, blood was collected in K2 EDTA vacutainer blood collection tubes (BD), and necropsy was performed immediately after euthanization. Blood, tumors and major organs (kidney, liver, spleen, pancreas, lung, heart, large and small intestines, bone, muscle, brain) were collected, and imaged ex vivo immediately after necropsy. Blood (150 µl) was imaged in 96-well plate with black bottom and walls. […] The fluorescence at zero-time point was taken as 100% and fluorescence recorded at 2, 4, 24 and 48 hrs p.i. were calculated as a percentage of zero-time point signal. […]
(§2) The in vivo and ex vivo bright field and near-infrared fluorescent imaging was performed using a Stryker 1588 AIM endoscopic system with L10 AIM Light Source (808 nm excitation and collection of light in the range of approximately of 815 to 850 nm), and a 1588 AIM Camera using a 10 mm scope. […] The calculated total fluorescence intensity and total area of each organ were used to calculate the mean organ fluorescence.

[2] = mouse, in vivo, iv
Protocol: as §1, §2

[3] = Stability in human plasma; assay type: in vitro ADME
Protocol: (§3) To establish the stability of pHLIP(Laa)-STINGa and pHLIP(Daa)-STINGa in plasma, pHLIP-STINGa was mixed with single donor human or BALB/c mouse plasma (Innovative Research) at a concentration of 200 μM, and kept in plasma for 0, 2, 4 or 24 hours at 37°C. Plasma proteins were precipitated by methanol (1:5 volume ratio of plasma to methanol) and centrifugated for 10 min at […]. The supernatant was collected and analyzed by HPLC using a Zorbax SB-C18 4.6 × 250 mm, 5 μm column with a gradient from 10% to 75% acetonitrile in water containing 0.05% TFA. Chromatograms were recorded at 220 nm, 280 nm and 320 nm. As controls pHLIP(Laa), pHLIP(Daa), Pys-PAB-STINGa, SH-PAB-STINGa, where Pys-PAB-STINGa was conjugated with a Cys residue, and diABZI (In vivogen) were analyzed for stability in plasma under the same conditions.

human plasma proteins = test: Binding to human plasma proteins (plasma stability study); assay type: in vitro ADME; settings: for amount of product bound to plasma proteins (in brackets): single donor human plasma, 200 μM, 37°C, HPLC
Protocol: as §3

mouse plasma proteins = test: Binding to mouse plasma proteins (plasma stability study); assay type: in vitro ADME; settings: BALB/c mouse plasma, 200 μM, 37°C, HPLC
Protocol: as §3

[4] = Stability in mouse plasma; assay type: in vitro ADME
Protocol: as §3

AKDDQNPWRAYLDLLFPTDTLLLDLLWCG [Al647-pHLIP-STINGa]
% of cells taken Al647-pHLIP-STINGa: CAFs [1]: 74%
% of cells taken Al647-pHLIP-STINGa: CD8 T-cells [1]: 24%
% of cells taken Al647-pHLIP-STINGa: DCs [1]: 52%
% of cells taken Al647-pHLIP-STINGa: TAMs (CD206+) [1]: 71%

AKDDQNPWRAYLDLLFPTDTLLLDLLWCG [ICG-pHLIP-STINGa]
persistence of fluorescence signal in the tumor (CT26 tumor): 8 days
half-life in blood [2]: 8.2 h

CCn1nc(C)cc1C(=O)Nc1nc2cc(C(N)=O)cc(OC)c2n1C/C=C/Cn1c(NC(=O)c2cc(C)nn2CC)nc2cc(C(N)=O)cc(OCCC[N+]3(Cc4ccc(NC(=O)OCCSSC[C@@H](NC(=O)[C@@H](Cc5c[nH]c6ccccc56)NC(=O)[C@@H](CC(C)C)NC(=O)[C@@H](CC(C)C)NC(=O)[C@@H](CC(=O)O)NC(=O)[C@@H](CC(C)C)NC(=O)[C@@H](CC(C)C)NC(=O)[C@@H](CC(C)C)NC(=O)[C@H](NC(=O)[C@@H](CC(=O)O)NC(=O)[C@H](NC(=O)[C@H]5CCCN5C(=O)[C@@H](Cc5ccccc5)NC(=O)[C@@H](CC(C)C)NC(=O)[C@@H](CC(C)C)NC(=O)[C@@H](CC(=O)O)NC(=O)[C@@H](CC(C)C)NC(=O)[C@@H](Cc5ccc(O)cc5)NC(=O)[C@@H](C)NC(=O)[C@@H](CCCNC(=N)N)NC(=O)[C@@H](Cc5c[nH]c6ccccc56)NC(=O)[C@H]5CCCN5C(=O)[C@@H](CC(N)=O)NC(=O)[C@@H](CC(=O)O)NC(=O)[C@@H](CCC(N)=O)NC(=O)[C@@H](CC(=O)O)NC(=O)[C@@H](C)N)[C@H](C)O)[C@H](C)O)C(=O)NCC(=O)O)cc4)CCOCC3)c21 [pHLIP(Daa)-STINGa] (H-[dA][dD][dQ][dD][dN][dP][dW][dR][dA][dY][dL][dD][dL][dL][dF][dP][dT][dD][dT][dL][dL][dL][dD][dL][dL][dW][dC](X1)G-OH; N-terminus and C-terminus assumed)
metabolised at 24 h, 200 μM ([3]; human plasma, over 24 hours, 37°C (text summary of Table S1), read-out: degradation): ~10%
amount of undegraded product (free fraction) ([3]; single donor human plasma, 200 μM, 37°C, 0 h, methanol precipitation, HPLC C18, UV): 99.4%
remaining at 2 h, 200 μM ([3]; single donor human plasma, 200 μM, 37°C, 2 h, methanol precipitation, HPLC C18, UV, read-out: amount of undegraded product (free fraction)): 99.2%
remaining at 4 h, 200 μM ([3]; single donor human plasma, 200 μM, 37°C, 4 h, methanol precipitation, HPLC C18, UV, read-out: amount of undegraded product (free fraction)): 97.6%
remaining at 24 h, 200 μM ([3]; single donor human plasma, 200 μM, 37°C, 24 h, methanol precipitation, HPLC C18, UV, read-out: amount of undegraded product (free fraction)): 89.6%
binding to plasma proteins, in words (human plasma proteins; compared with the Laa version, especially human plasma proteins): much stronger binding to plasma proteins than the Laa version
amount of product bound to plasma proteins (in brackets) (human plasma proteins; 0 h): 0%
amount of product bound to plasma proteins (in brackets) (human plasma proteins; 2 h): 77.2%
amount of product bound to plasma proteins (in brackets) (human plasma proteins; 4 h): 84.4%
amount of product bound to plasma proteins (in brackets) (human plasma proteins; 24 h): 87.7%
amount of product bound to plasma proteins (in brackets) (mouse plasma proteins; 0 h): 0%
amount of product bound to plasma proteins (in brackets) (mouse plasma proteins; 2 h): 51.7%
amount of product bound to plasma proteins (in brackets) (mouse plasma proteins; 4 h): 59.6%
amount of product bound to plasma proteins (in brackets) (mouse plasma proteins; 24 h): 75.9%
amount of undegraded product (free fraction) ([4]; BALB/c mouse plasma, 200 μM, 37°C, 0 h, methanol precipitation, HPLC C18, UV 220/280/320 nm): 99.4%
remaining at 2 h, 200 μM ([4]; BALB/c mouse plasma, 200 μM, 37°C, 2 h, methanol precipitation, HPLC C18, UV, read-out: amount of undegraded product (free fraction)): 90.9%
remaining at 4 h, 200 μM ([4]; BALB/c mouse plasma, 200 μM, 37°C, 4 h, methanol precipitation, HPLC C18, UV, read-out: amount of undegraded product (free fraction)): 84.5%
remaining at 24 h, 200 μM ([4]; BALB/c mouse plasma, 200 μM, 37°C, 24 h, methanol precipitation, HPLC C18, UV, read-out: amount of undegraded product (free fraction)): 58.2%
modified STINGa released from pHLIP ([4]; incubated with mouse plasma, 37°C (text summary of Table S1)): about 40%
